The text below walks through data of the supplement of paper PMC10567573.

The labels stand for the following.
B1: TRAF3IP2 (parent)
chain: FMEKRNQWLVSQLSAASPDTGHDS
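Further: lentivirally expressed fusions sorted by FACS into six bins by GFP to DsRed ratio, PSI derived from sequencing read proportions per bin multiplied by bin number.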

In the series the parent is B1. Briefly: protein stability index of a GFP-peptide fusion (GPS, HEK-293T) (PSI 1-6); higher = more stable. As to conditions: c terminus: a fixed tail appended.
With FMEKRNQWLVSQISAASPDTGHDS [L13I], the protein stability index came to 2.17.

In the case of FMEKRNQWLVSQASAASPDTGHDS [L13A], the protein stability index stood at 3.73.

For the variant FMEKRNQWLVSQYSAASPDTGHDS [L13Y], the protein stability index was found to be 2.35.

Take FMEKRNQWLVSQRSAASPDTGHDS [L13R]: the protein stability index was 3.01.

With FMEKRNQWLVSQPSAASPDTGHDS [L13P], the protein stability index came out at 3.13.

In the case of FMEKRNQWLVSQFSAASPDTGHDS [L13F], the protein stability index stood at 2.48.

For the variant FMEKRNQWLVSQCSAASPDTGHDS [L13C], the protein stability index was 1.91.

Consider FMEKRNQWLVSQKSAASPDTGHDS [L13K], for which the protein stability index came out at 2.84.

With FMEKRNQWLVSQTSAASPDTGHDS [L13T], the protein stability index worked out at 2.67.

Take FMEKRNQWLVSQQSAASPDTGHDS [L13Q]: the protein stability index stood at 2.5.

In the case of FMEKRNQWLVSQGSAASPDTGHDS [L13G], the protein stability index turned out to be 2.47.

FMEKRNQWLVSQESAASPDTGHDS [L13E]: the protein stability index is 3.2.

On to FMEKRNQWLVSQWSAASPDTGHDS [L13W], for which the protein stability index was 2.45.

Consider FMEKRNQWPVSQLSAASPDTGHDS [L9P], for which the protein stability index was found to be 3.83.

Take FMEKRNQWTVSQLSAASPDTGHDS [L9T]: the protein stability index came out at 2.44.

In the case of FMEKRNQWCVSQLSAASPDTGHDS [L9C], the protein stability index stood at 2.41.

Turning to FMEKRNQWFVSQLSAASPDTGHDS [L9F], the protein stability index came out at 2.73.

Consider FMEKRNQWDVSQLSAASPDTGHDS [L9D], for which the protein stability index was determined as 4.31.

Take FMEKRNQWEVSQLSAASPDTGHDS [L9E]: the protein stability index was found to be 4.27.

For the variant FMEKRNQWVVSQLSAASPDTGHDS [L9V], the protein stability index worked out at 1.71.

In the case of FMEKRNQWAVSQLSAASPDTGHDS [L9A], the protein stability index was 2.19.

As for FMEKRNQWNVSQLSAASPDTGHDS [L9N], the protein stability index was determined as 3.44.

FMEKRNQWRVSQLSAASPDTGHDS [L9R]: the protein stability index turned out to be 2.08.

FMEKRNQWKVSQLSAASPDTGHDS [L9K]: the protein stability index was determined as 2.7.

On to FMEKRNQWHVSQLSAASPDTGHDS [L9H], for which the protein stability index was found to be 3.82.

Take FMEKRNQWYVSQLSAASPDTGHDS [L9Y]: the protein stability index was 2.9.

On to FMEKRNQWMVSQLSAASPDTGHDS [L9M], for which the protein stability index stood at 2.36.

FMEKRNQWIVSQLSAASPDTGHDS [L9I]: the protein stability index worked out at 2.9.

Take FMEKRNQWSVSQLSAASPDTGHDS [L9S]: the protein stability index was 3.15.

Consider FMEKRNQWGVSQLSAASPDTGHDS [L9G], for which the protein stability index came out at 3.34.

For the variant FMEKRNQWQVSQLSAASPDTGHDS [L9Q], the protein stability index amounted to 3.03.

With FMEKRNQWLVSQLSKASPDTGHDS [A15K], the protein stability index turned out to be 3.53.

In the case of FMEKRNQWLVSQLSMASPDTGHDS [A15M], the protein stability index was 1.7.

For FMEKRNQWLVSQLSCASPDTGHDS [A15C], the protein stability index came to 2.38.

With FMEKRNQWLVSQLSFASPDTGHDS [A15F], the protein stability index came out at 1.83.

Regarding FMEKRNQWLVSQLSPASPDTGHDS [A15P], the protein stability index is 2.75.

As for FMEKRNQWLVSQLSHASPDTGHDS [A15H], the protein stability index was found to be 2.33.

As for FMEKRNQWLVSQLSLASPDTGHDS [A15L], the protein stability index amounted to 2.3.

With FMEKRNQWLVSQLSNASPDTGHDS [A15N], the protein stability index came out at 2.21.

As for FMEKRNQWLVSQLSDASPDTGHDS [A15D], the protein stability index amounted to 2.47.

For the variant FMEKRNQWLVSQLSQASPDTGHDS [A15Q], the protein stability index came to 2.34.

Turning to FMEKRNQWLVSQLSIASPDTGHDS [A15I], the protein stability index was 1.77.

Turning to FMEKRNQWLVSQLSEASPDTGHDS [A15E], the protein stability index came out at 2.73.

Regarding FMEKRNQWLVSQLSGASPDTGHDS [A15G], the protein stability index was 2.71.

On to FMEKTNQWLVSQLSAASPDTGHDS [R5T], for which the protein stability index came out at 2.16.

Regarding FMEKMNQWLVSQLSAASPDTGHDS [R5M], the protein stability index came out at 2.94.

For the variant FMEKYNQWLVSQLSAASPDTGHDS [R5Y], the protein stability index was determined as 1.89.

On to FMEKGNQWLVSQLSAASPDTGHDS [R5G], for which the protein stability index came out at 1.71.

Consider FMEKSNQWLVSQLSAASPDTGHDS [R5S], for which the protein stability index is 2.28.

FMEKVNQWLVSQLSAASPDTGHDS [R5V]: the protein stability index came out at 1.97.

As for FMEKINQWLVSQLSAASPDTGHDS [R5I], the protein stability index was determined as 1.68.

As for FMEKNNQWLVSQLSAASPDTGHDS [R5N], the protein stability index was 1.98.

As for FMEKKNQWLVSQLSAASPDTGHDS [R5K], the protein stability index worked out at 2.38.

Turning to FMEKQNQWLVSQLSAASPDTGHDS [R5Q], the protein stability index was determined as 2.67.

For FMEKFNQWLVSQLSAASPDTGHDS [R5F], the protein stability index turned out to be 1.83.

As to FMEKLNQWLVSQLSAASPDTGHDS [R5L], the protein stability index is 1.79.

In the case of FMEKHNQWLVSQLSAASPDTGHDS [R5H], the protein stability index came out at 2.62.

Consider FMEKPNQWLVSQLSAASPDTGHDS [R5P], for which the protein stability index came to 1.36.

In the case of FMEKWNQWLVSQLSAASPDTGHDS [R5W], the protein stability index was found to be 3.1.

FMEKRPQWLVSQLSAASPDTGHDS [N6P]: the protein stability index worked out at 3.03.

On to FMEKRKQWLVSQLSAASPDTGHDS [N6K], for which the protein stability index came out at 2.42.

Regarding FMEKRYQWLVSQLSAASPDTGHDS [N6Y], the protein stability index stood at 1.56.

Consider FMEKRRQWLVSQLSAASPDTGHDS [N6R], for which the protein stability index was determined as 2.44.

For FMEKRIQWLVSQLSAASPDTGHDS [N6I], the protein stability index is 1.42.

As to FMEKRDQWLVSQLSAASPDTGHDS [N6D], the protein stability index came to 2.73.

Turning to FMEKRTQWLVSQLSAASPDTGHDS [N6T], the protein stability index is 1.83.

On to FMEKRCQWLVSQLSAASPDTGHDS [N6C], for which the protein stability index came out at 1.77.

As to FMEKRHQWLVSQLSAASPDTGHDS [N6H], the protein stability index turned out to be 2.05.

In the case of FMEKRMQWLVSQLSAASPDTGHDS [N6M], the protein stability index turned out to be 2.06.

Turning to FMEKRAQWLVSQLSAASPDTGHDS [N6A], the protein stability index came out at 2.24.

With FMEKRLQWLVSQLSAASPDTGHDS [N6L], the protein stability index was 1.51.

With FMEKRWQWLVSQLSAASPDTGHDS [N6W], the protein stability index came out at 1.29.

On to FMEKRSQWLVSQLSAASPDTGHDS [N6S], for which the protein stability index came out at 2.2.

As for FMEKRQQWLVSQLSAASPDTGHDS [N6Q], the protein stability index came out at 1.91.

With FMEKRVQWLVSQLSAASPDTGHDS [N6V], the protein stability index was 2.02.

Consider FMEKRGQWLVSQLSAASPDTGHDS [N6G], for which the protein stability index was 3.08.

For the variant FMEKRNQWLYSQLSAASPDTGHDS [V10Y], the protein stability index was 2.5.

As to FMEKRNQWLTSQLSAASPDTGHDS [V10T], the protein stability index amounted to 3.21.

In the case of FMEKRNQWLKSQLSAASPDTGHDS [V10K], the protein stability index was found to be 3.41.

Regarding FMEKRNQWLSSQLSAASPDTGHDS [V10S], the protein stability index is 3.5.

Turning to FMEKRNQWLISQLSAASPDTGHDS [V10I], the protein stability index came to 2.12.

Consider FMEKRNQWLLSQLSAASPDTGHDS [V10L], for which the protein stability index worked out at 2.29.

FMEKRNQWLMSQLSAASPDTGHDS [V10M]: the protein stability index was 2.74.

FMEKRNQWLGSQLSAASPDTGHDS [V10G]: the protein stability index stood at 3.14.

In the case of FMEKRNQWLHSQLSAASPDTGHDS [V10H], the protein stability index was found to be 3.38.

As to FMEKRNQWLRSQLSAASPDTGHDS [V10R], the protein stability index turned out to be 3.28.

Take FMEKRNQWLASQLSAASPDTGHDS [V10A]: the protein stability index worked out at 3.61.

On to FMEKRNQWLPSQLSAASPDTGHDS [V10P], for which the protein stability index came out at 2.46.

FMEKRNQWLESQLSAASPDTGHDS [V10E]: the protein stability index came to 4.34.

In the case of FMEKRNQWLNSQLSAASPDTGHDS [V10N], the protein stability index turned out to be 3.46.

On to FMEKRNQWLCSQLSAASPDTGHDS [V10C], for which the protein stability index was found to be 1.99.

Regarding FMEKRNQWLQSQLSAASPDTGHDS [V10Q], the protein stability index came out at 2.93.

FMEKRNQWLFSQLSAASPDTGHDS [V10F]: the protein stability index was 1.29.

Take FMEKRNQWLDSQLSAASPDTGHDS [V10D]: the protein stability index worked out at 4.18.
